T1: Human LRP6-Fc (R&D Systems), recombinant human LRP6 containing the complete extracellular domain (human, UniProt O75581 20-1370)
T1 construct: Bought protein; also called hLRP6; Fc-antigen; not shown: Fc part of the bought fusion protein
T1 sequence: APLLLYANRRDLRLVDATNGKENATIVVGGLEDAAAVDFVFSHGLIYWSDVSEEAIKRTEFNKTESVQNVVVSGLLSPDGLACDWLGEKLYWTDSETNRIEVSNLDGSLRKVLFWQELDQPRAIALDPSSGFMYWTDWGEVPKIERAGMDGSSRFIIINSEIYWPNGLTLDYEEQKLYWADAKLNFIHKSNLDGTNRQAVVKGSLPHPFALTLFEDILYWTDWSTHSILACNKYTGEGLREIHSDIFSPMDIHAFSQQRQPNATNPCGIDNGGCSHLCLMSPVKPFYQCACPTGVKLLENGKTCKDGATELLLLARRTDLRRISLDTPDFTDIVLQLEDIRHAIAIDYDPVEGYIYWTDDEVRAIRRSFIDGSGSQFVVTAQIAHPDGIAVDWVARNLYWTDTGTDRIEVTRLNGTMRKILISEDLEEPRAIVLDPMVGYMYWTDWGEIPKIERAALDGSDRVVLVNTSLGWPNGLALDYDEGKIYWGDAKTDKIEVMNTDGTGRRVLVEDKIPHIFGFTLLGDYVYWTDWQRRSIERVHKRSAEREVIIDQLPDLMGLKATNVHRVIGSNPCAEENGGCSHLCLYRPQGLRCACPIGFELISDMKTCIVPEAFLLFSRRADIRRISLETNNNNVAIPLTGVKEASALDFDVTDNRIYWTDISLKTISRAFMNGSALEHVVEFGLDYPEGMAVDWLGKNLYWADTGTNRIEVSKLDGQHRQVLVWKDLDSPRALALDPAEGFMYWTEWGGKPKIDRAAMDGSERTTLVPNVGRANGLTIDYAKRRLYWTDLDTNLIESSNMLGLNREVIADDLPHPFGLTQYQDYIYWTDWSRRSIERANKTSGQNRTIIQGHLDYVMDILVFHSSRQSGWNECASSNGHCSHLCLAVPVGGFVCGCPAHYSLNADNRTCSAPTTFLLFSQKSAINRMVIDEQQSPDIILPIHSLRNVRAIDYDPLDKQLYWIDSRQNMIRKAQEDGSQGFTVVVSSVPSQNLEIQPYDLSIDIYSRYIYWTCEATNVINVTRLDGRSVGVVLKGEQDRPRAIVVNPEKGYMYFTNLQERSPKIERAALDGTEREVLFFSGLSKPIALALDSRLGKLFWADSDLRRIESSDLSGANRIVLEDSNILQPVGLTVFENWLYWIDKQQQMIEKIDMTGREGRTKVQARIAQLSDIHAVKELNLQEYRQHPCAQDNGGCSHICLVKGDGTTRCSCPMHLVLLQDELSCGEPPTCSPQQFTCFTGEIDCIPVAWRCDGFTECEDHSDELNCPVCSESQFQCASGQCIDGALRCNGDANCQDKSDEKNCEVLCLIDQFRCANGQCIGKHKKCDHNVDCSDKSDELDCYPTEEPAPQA

T2: LRP6Δ1/4
T2 construct: also called LRP6Del1-4
T2 chain: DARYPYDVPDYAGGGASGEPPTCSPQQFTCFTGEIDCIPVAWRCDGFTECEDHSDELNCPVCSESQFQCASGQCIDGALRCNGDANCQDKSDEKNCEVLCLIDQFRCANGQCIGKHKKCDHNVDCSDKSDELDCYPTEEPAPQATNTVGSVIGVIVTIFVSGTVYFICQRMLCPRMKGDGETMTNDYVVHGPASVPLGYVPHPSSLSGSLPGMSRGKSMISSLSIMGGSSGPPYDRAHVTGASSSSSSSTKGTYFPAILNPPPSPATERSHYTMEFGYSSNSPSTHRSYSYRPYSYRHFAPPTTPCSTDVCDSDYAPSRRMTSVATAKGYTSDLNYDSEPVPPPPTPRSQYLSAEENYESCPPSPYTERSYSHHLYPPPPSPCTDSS

T3: LRP6Δ1-2 propeller domain deletion construct (human, UniProt O75581 629-1613)
T3 construct: Deletion construct of human LRP6 expressed in 293 cells
T3 sequence: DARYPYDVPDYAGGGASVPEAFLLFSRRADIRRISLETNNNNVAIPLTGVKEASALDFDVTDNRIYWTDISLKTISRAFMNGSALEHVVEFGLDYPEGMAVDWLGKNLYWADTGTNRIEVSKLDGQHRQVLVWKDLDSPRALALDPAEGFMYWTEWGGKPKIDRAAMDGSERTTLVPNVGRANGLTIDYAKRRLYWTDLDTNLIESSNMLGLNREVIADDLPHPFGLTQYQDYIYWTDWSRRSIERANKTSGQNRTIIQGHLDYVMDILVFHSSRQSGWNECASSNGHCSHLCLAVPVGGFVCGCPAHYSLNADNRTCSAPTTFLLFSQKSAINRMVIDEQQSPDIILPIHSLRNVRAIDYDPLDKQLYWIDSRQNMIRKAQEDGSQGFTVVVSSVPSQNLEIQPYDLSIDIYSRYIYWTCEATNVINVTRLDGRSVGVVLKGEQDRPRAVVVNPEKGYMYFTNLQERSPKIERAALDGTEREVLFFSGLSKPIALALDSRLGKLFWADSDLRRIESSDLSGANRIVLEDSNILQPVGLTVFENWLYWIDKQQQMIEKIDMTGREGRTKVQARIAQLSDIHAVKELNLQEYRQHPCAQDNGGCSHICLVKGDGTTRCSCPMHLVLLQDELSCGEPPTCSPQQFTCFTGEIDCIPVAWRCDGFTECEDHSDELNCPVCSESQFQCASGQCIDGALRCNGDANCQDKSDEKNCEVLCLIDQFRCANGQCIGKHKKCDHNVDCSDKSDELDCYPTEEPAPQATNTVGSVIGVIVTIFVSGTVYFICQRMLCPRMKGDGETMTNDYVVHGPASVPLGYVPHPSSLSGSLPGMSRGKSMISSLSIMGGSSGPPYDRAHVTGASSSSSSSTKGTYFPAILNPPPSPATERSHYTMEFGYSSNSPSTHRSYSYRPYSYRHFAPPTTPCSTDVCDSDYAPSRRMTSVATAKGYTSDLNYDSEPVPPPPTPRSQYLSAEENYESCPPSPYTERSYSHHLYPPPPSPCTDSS


What was measured:
[1] = target: T1, Human LRP6-Fc (R&D Systems), …; assay: SPR (BIAcore): mAb captured on an anti-mouse chip, Fc-antigen injected from 45 nM in 3-fold dilutions, 1:1 fit. The sheet prints no unit for kd; the unit is from the head of Table 4. [cont., panel R]
Experimental: (§1) Kinetic rate constants (kₐ and kd) were determined using surface plasmon resonance, and affinities (KD) were then calculated from the rate constants (kd/kₐ). Surface plasmon resonance was carried out on a BIAcore system (Biacore International AB, Uppsala, Sweden). Each murine anti-LRP6 mAb sample was diluted 100 fold and captured onto an anti-mouse sensor chip surface. The running buffer contained 10 mM HEPES, 150 mM NaCl, 0.005% Tween-20 and 0.1 mg/ml BSA. Following the capturing step, the Fc-antigen was injected at 45 nM as the highest concentration in a 3-fold dilution series. The association and dissociation phases were monitored for 8 and 60 minutes, respectively. The antigen response data were fit into a 1:1 interaction model.

[2] = target: T1, Human LRP6-Fc (R&D Systems), …; assay: SPR (BIAcore): mAb captured on an anti-mouse chip, Fc-antigen injected from 45 nM in 3-fold dilutions, 1:1 fit. The sheet prints no unit for ka; the unit is from the head of Table 4. [cont., panel R]
Experimental: as §1

[3] = target: T1, Human LRP6-Fc (R&D Systems), …; assay: SPR (BIAcore): mAb captured on an anti-mouse chip, Fc-antigen injected from 45 nM in 3-fold dilutions, 1:1 fit [cont., panel R]
Experimental: as §1

[4] = target: T1, Human LRP6-Fc (R&D Systems), …; assay: SPR (BIAcore), mAb captured on anti-mouse chip, Fc-antigen injected, 1:1 model
Experimental: as §1

LRP6Δ1/4 = target: T2, LRP6Δ1/4; assay: FACS on 293 cells transfected with LRP6Δ1/4 [cont.]
Experimental: (§2) To identify the region of LRP6 that is recognized by LRP6 mAbs, a series of LRP6 propeller domain deletion constructs were made (SEQ ID NO: 6-15) and expressed in 293 cells. Binding of anti-LRP6 mAbs was determined by flow cytometry. […] Amino acid sequence alignments of the heavy and light chain variable domains of the anti-LRP6 mAbs disclosed herein are shown in FIGS. 4 and 5, respectively.

[5] = target: T3, LRP6Δ1-2 propeller domain deletion …; assay: flow cytometry on 293 cells expressing the deletion construct
Experimental: as §2

koff [1] [s⁻¹] | kon [2] [M⁻¹ s⁻¹] | Kd [3] [nM] | Kd [4] [nM] | koff [4] [s⁻¹] | kon [4] [M⁻¹ s⁻¹] | binding result (LRP6Δ1/4) | binding result [5] | Binder
7.3e-05 | 20800 | 3.51 |  |  |  |  |  | anti-LRP6 monoclonal antibody 1470.2 (antibody, V domains shown, Murine hybridoma mAb, protein G purified; also called VH22/VL22) VH: DVNLVESGGGLVKLGGSLKLSCAASGFTFSSFYMSWVRQTPEKRLDLVAAINTNGGSTYYSDTVKGRFTISRDNAKNTLYLQMSSLKSEDTALFYCARQPYYGGPMDFWGQGTSVTVSS VL: DIVLTQSPATLSVTPGDSVSLSCRASQSINNNLHWYQQKSHESPRLLIKYASQSISGIPSRFSGSGSGTDFTLSINSVETEDFGMYFCQQSNNWPLTFGAGTKLEL
 |  |  | 0.73 | 1.9e-05 | 26300 | no binding (tested: not stated) | no binding | anti-LRP6 monoclonal antibody 135.16 (antibody, V domains shown, Murine hybridoma mAb, protein G purified; also called mAb135.16) VH: QVQLQQSGAELVKPGASVKMSCKAFGYTFTSYPIEWMKQNHGKSLEWIGNFHPYNDNTKYNEKFKGKAKLTVEKSSSTVYLELSRSTSDDSAVYYCARGYSGNYFSAMDYWGQGTSVTVSS VL: DIVMTQSQKFMSTSVGDRVSITCKASQNVRNDVAWYQQKPGQSPKSLIYLASNRHTGVPDRFTGSGSGTDFTLTISNVQSEDLADYFCLQHWNYPYTFGGGTKLEIKR
 |  |  | 1.45 | 5.34e-05 | 36800 |  |  | anti-LRP6 monoclonal antibody 1115.3 (antibody, V domains shown, Murine hybridoma mAb, protein G purified; also called VH16/VL16) VH: DVKLVESGGGLVKLGGSLRLSCAASGFSFSTSYMSWVRQTPEKRLELVAAINLNGGSTYYSDTVKGRFTISRDNAKNTLYLQMSSLKSEDTAFYYCASELAGYGTPFAYWGQGTLVTVSA VL: DIVLTQSPATLSVTPGDSVSLSCKASQSISNNLHWYQQKSHESPRLLIKYTSQSISGIPSRFSGSGSGTDFTLTINNVETEDFGMYFCQQSNSWPLTFGAGTKLEV
 |  |  | 1.07 | 6.3e-05 | 58800 |  |  | anti-LRP6 monoclonal antibody 1213.2 (antibody, V domains shown, Murine hybridoma mAb, protein G purified; also called VH17/VL17) VH: DVNLVESGGGLVKLGGSLKLSCAASGFTFSSFYMSWVRQTPEKRLDLVATINTNGGSTYYSDTVKGRFTISRDNAKNTLYLQMNSLKSEDTALFYCVRQPYYGGTMDYWGQGTSVTVSS VL: DIVLTQSPATLSVTPGDRVSLSCRASQSINNNLHWYQQKSHESPRLLIKYASQSISGIPSRFSGSGSGTDFTLSINSVETEDFGMYFCQQTNNWPLTFGAGTKLEL
 |  |  | 1.68 | 7.7e-05 | 45600 |  |  | anti-LRP6 monoclonal antibody 1433.8 (antibody, V domains shown, Murine hybridoma mAb, protein G purified; also called VH21/VL21) VH: QVQLQQSGAELAKPGASVKMSCKASGYTFTSYWMHWVKQRPGQGLEWIGYINPSTGYTEYNQKFRDKATLTADKSSSTANMQLSSLTSEDSAVYYCTRTAQYYGSPRGYYAMDSWGQGTSVTVSS VL: MTQAAFSNPVTLGTSASISCRSSKSLLHSNGITYLCWFLQKPGQSPQLLIYLMSNLASGVPDRFSSSGSGTDFTLRISRVEAEDVGVYFCAQNLDLPWTFGGGTKLEI
 |  |  | 2.79 | 9.4e-05 | 33700 |  |  | anti-LRP6 monoclonal antibody 1903.1 (antibody, V domains shown, Murine hybridoma mAb, protein G purified; also called VH23/VL23) VH: DVNLVESGGGLVKLGGSLKLSCAASGFTFSRFYMSWVRQTPEKRLDLVAAINTNGGSTYYSDTVKGRFTISRDNAKNTLYLQMSSLKSEDTALFYCARQPYYGGPMEFWGQGTSVTVSS VL: DIVMTQSQKFMSTSVGDRVSVTCKASQNVGTNVAWYQQKPGQSPKALIYSASYRYSGVPDRFTGSGSGSDFTLTISNVQSEDLAEYFCQQYNSYPLTFGAGTKLEL
